In PMC5013604:

Tests used:
[1] = cycloheximide chase, western blot, MDA-MB-231; settings: glycan lost; control: wild type
[2] = PD-L1 IP, anti-K48 ubiquitin blot, with MG132; settings: glycan lost; control: MG132 without tunicamycin
[3] = western blot with GSK3β and β-TrCP overexpression; settings: glycan lost; control: wild type (co-expressed)

Row | Substance | degradation_or_half_life, half_life [1] | other: ubiquitination [2] | expression_or_secretion [3]
1 | PD-L1 (programmed death ligand-1, B7-H1): N35Q | no change |  | 
2 | PD-L1 (programmed death ligand-1, B7-H1): N35/3NQ | decreases |  | 
3 | PD-L1 (programmed death ligand-1, B7-H1): N200Q | decreases |  | 
4 | PD-L1 (programmed death ligand-1, B7-H1): N219Q | decreases |  | 
5 | PD-L1 (programmed death ligand-1, B7-H1): N192Q | decreases |  | 
6 | PD-L1 (programmed death ligand-1, B7-H1): tunicamycin |  | increases | 
7 | PD-L1 (programmed death ligand-1, B7-H1): 4NQ | decreases |  | decreases
